Residue numbers refer to the chain shown, from its start.

Holding throughout (assay): SPR, KD relative to WT C2;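 further: biacore SPR at 37 °C, anti-C2 mAbs captured via immobilised goat anti-human IgG, C2 alanine or serine surface mutants as analytes, 1:1 model fitted, double-referenced sensograms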
(Surface plasmon resonance follows binding to a sensor surface in real time, without labels.)

One assay addresses T1, human C2 F689A (human, UniProt P06681 21-752).
T1 sequence: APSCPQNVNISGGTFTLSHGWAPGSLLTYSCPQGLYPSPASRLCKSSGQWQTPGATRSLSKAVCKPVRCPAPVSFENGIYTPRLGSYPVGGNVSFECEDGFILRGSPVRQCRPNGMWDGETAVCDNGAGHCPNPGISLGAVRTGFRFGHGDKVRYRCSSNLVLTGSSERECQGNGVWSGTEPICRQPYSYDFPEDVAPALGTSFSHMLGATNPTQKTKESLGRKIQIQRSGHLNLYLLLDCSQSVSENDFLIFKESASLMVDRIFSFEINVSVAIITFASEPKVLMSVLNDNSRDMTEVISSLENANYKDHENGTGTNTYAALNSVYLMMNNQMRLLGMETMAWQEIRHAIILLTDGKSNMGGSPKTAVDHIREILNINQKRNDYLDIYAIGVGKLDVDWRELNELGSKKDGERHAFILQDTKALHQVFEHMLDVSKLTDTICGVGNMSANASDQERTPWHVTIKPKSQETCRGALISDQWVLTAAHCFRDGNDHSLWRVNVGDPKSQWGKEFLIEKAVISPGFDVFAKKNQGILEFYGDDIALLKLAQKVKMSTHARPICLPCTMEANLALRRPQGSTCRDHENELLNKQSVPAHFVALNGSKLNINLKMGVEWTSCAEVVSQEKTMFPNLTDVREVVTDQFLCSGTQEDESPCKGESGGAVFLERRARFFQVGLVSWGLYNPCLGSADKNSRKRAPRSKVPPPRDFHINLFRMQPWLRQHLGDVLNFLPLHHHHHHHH

For another assay, the target named is T2, human C2 E490A (human, UniProt P06681 21-752).
T2 sequence: T1 sequence with E470A, A669F

In assay [1] the target is T3, human complement C2 (wild type) (human, UniProt P06681 21-752).
T3 construct: Full-length human C2 (NP_000054) with C-terminal 8x His tag, secreted from Expi293F cells and purified from the supernatant; also called WT; huC2
T3 sequence: T1 sequence with A669F

B1: RF16-226 (antibody, human IgG4 S228P, lambda)
heavy: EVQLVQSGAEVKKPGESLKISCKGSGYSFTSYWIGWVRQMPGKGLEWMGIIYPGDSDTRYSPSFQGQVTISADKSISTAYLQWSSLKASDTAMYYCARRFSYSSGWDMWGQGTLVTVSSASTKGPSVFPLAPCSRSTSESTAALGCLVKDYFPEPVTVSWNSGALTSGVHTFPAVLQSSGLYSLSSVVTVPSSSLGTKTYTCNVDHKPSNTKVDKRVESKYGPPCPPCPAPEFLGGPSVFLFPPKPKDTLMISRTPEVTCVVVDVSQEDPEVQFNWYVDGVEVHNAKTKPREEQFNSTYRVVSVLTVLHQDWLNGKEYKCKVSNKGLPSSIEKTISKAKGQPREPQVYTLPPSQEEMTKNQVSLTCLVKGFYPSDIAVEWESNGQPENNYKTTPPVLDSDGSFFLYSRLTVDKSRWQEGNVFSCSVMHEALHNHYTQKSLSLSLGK
light: SYELTQPPSVSVSPGQTARITCSGDALTSKYVAWYQQKSGLAPLLVIYEDTRRPSGIPAKFSGSSSGSVATLTISGAHGDDEADYYCYSTDASGHQRVFGGGTKLTVLSQPKAAPSVTLFPPSSEELQANKATLVCLISDFYPGAVTVAWKADGSPVKAGVETTKPSKQSNNKYAASSYLSLTPEQWKSHRSYSCQVTHEGSTVEKTVAPTECS
notes: pH-dependent anti-C2 antibody from a phage display library; also called WT
With B1, the Fold diff with human C2 F689A was determined as 1 fold; with human C2 E490A, 2 fold; in assay [1] it was 1 fold.
